Experiment: soluble on expression in E. coli; label from the status in PepcDB or PDB records

With “MSLTKDPEWLTKEFAGNPIRTGRTIEDPDFPRIAITYSIQENEDNSKQIQDEMKDIIKDYNDYYHTAWSIEDIERYNGDINNRLARKKAEFKEFGKQIDLVIVVDRLLTGFDAPTIQTLFVDRNLSYANLIQAFSRTNRTYPGKTKGLIVTFRKPSTMEQNVKDATKLYSEAQEESDLVYPTYDESKKRFKKAHKLLTTLVPNPTDINEHSPLEIRIEFVKAFQELNNTYEALVTYDEYNDDMEKSKVLQEQINTLEEYIGVYNTVKGSLVDEGAQDGPGPDFSGIEFYGENAIKVYDIDSTYIDRLLGTYSANNQNIRDEIEKALQKLKKLEIVKDVYRAMLNAIDTKKIDSEEDILVVKRRFFTESYDKAIKEFANTWFVEGNELHLSAIQYVIGSDPIPNIRGIINSKQFDKYKAIHPDAKPLKYGPEMKRQWRKTLDEVIVPLADELREGHHHHHH” the “soluble on expression in E. coli” value was “soluble”.
In the case of “MAHHHHHHMQRHSRRGLLKYLSGVRVEYGGSAAKLLDSYLHQDAGAKHAANLPVSQRYFYIKNRNNDASLSSATGASQQHQTVQLRLGAAQMLSSSQHTSIDNLNEAHPLYYAQTSPSAAGLAAPLVLALKRLRIRQLTALQGALVPLLLKGKHVIAHSETGTGKSFGIALALANRIIRDQLNYRLHTVVLVPTEELALQYDKWLRHFGGCTSQVVQVAIDSIPLEAQLAKLHNIQPHVLVGTPQRVAEIVRLSPSILGEKLRRKVDCVVLDEADMIIHANVVYGRQQLSGANLVDRLFRNRREEVPAQLVAASATVDGVTAQTLNTWTRNDRTVRLTTSFVEHTIPPTIQFYFFGASRAYPLERCLLLSLQLICTQRPDARILIFTEDERVAEVCTLLTSAEVEGEMRRIAPGALSSTKVFAGALHALPRSIPSADNKESHGPDNPVSHRRVPLTTATQQAAPFSAIRGSGNVYEDVRAHQVIRQHGDVYVKNNSSLSRLNEGKLVVGVGSFNSSRGLHVNGITHVILYGACPSAACFVHCAGRTGRMGAEGDVLVLYPPSSGRQVQQVCSSLEVPFHSSRMSAVEDLLRSGEARTTESAAGAVTESASGAAADNT”, the “soluble on expression in E. coli” value is reported as “not soluble”.
For “MGSDKIHHHHHHMTPDEVLRIASMHAVRGEYETALSLLRQLHAFIPDDIQVMRALGIVLANSGDHEAALPFLHQVAQRQCTPDNVMGLIKVLGAMRRFPDIDHVCSVVWPHIGDELAFLGEWGYANLLMERFDRALEILGKALALDPHFRPALHNGASALVRSGRGEEAVSMYSRLGRAWASTEAVARDFVGEYAALSQSYDDNPLHHYFSARLVRLVQDARPEAMPDSVLELGCGSGLLSQALPQKPDRLVGIDISPDMLARARTRGAYSSLLCGDLVEVMAGLEEPFDAVMSAGVLCYLPDLRKVFANVARLLSPGGVFAFSVDPVGDDMEIAEMEPGEFAHSRPYLRALAAETGLTEIRIDIDLHRGAPGFWCSFGKAG”, the “soluble on expression in E. coli” value was “not soluble”.
With “MGSDKIHHHHHHMSGQLHKMWYFPHMNQHEATVTDGDELQQFIAEAIALVGGVRALASIAGVSERTVYAWKNGERFPSRTNLNRLSEHLEHLSRQGYSPSAPQPHWRALRERMPGSYAPQQPDDTDRLTEEFVFVDKAEARPSAGGGSLETSARAETRYAFRLDWVLQKTPTSEGLRMMEVAGRSMENTLHNGDLVLVNERDVHLVEDRVYVVRVHDEIYVKRFARTPGCYHFRGDNRELAYQDISIDPRDENLDWEVIGRVLWAGKEL” the “soluble on expression in E. coli” value was “not soluble”.
In the case of “MAHHHHHHMVLTLDCSQAVQNTIRELQDTRAFTDDDGAETIATTWFSDVGLCITGYTRDLVAAINSQGTPSVVVVIQNLHTFADRQRQKVLKIHQRYFNSVLSDTTKVVPVVSQDDYTKILRHMQVSKIRTLKWRDQHPYMAVEEKAYNPETQELTITGHLRGMPLSATQLVHLTNHGTFQVCKIEEVRKGDERVLIETSEAAQRESLQQVQANSTLEDDGFPTDADVLYHQEIAGTHKIRVPAGVSSDQAAWYDTEENIVKDSAPKHQHITMDDEDAFAGDAMSYRTTQTDVDFLKAEDVVRLERMTDEERILEMEKLKELSEEETWNPDMVDTPVNIPARQRFAKYRGMRSFHTGRWDPAENLPPQYAYIYKLQGYSRIRESAIDACEGGMAEVGMCIAITLVNVPQSVWNACERCLLIASGQLQHEQKWSVLHFQVQRASELDEPIKSKTPMLAHIGFRKFYVSPLFSDISSGDRSKFARFFHEGDRFRMATFFGPISYNPCPLLLFQVPSLEEQAEGNPLRLACFGGSLPPNPETLLLKRAVLSGRVAVIHKKQVVVKYMFFNDEDIKWFQPVDLYTKFGRRGKITKPVGTHGLFKAVLNDQIMQHDVVCMDLFKRVFPKWTTVAFSMSDVPAGHTENEEER”, the “soluble on expression in E. coli” value is reported as “not soluble”.
In the case of MREKWRKKRMRRLKRKRRAAKK, the “soluble on expression in E. coli” value is reported as “not soluble”.
For “MVVLVTRSLLPALFFASRAPFAAATTSARFQRGLATMAAEAFTKHEVIPDVLASNPPSKVVSVKFNSGVEANLGNVLTPTQVKDTPEVKWDAEPGALYTLIKTDPDAPSRKEPTYREWHHWLVVNIPGNDIAKGDTLSEYIGAGPPPKTGLHRYVYLIYKQSGRIEDAEHGRLTNTSGDKRGGWKAADFVAKHKLGAPVFGNLFQAEYDDYVPILNKQLGA”, the “soluble on expression in E. coli” value was “not soluble”.
For “GPGSMPYIRMAYEKAISDVPADTLDKVKAVLSALEEVLSVRTFLVGERLTIADVAVAFSIHWVYRCNRKHGQTLYKEYRAVYRHYNTVMRHPKIHAMMRKEGAAIGPLRS”, the “soluble on expression in E. coli” value was “not soluble”.
For “MSFFFLEVLTYFDYDSSMTIKAEIKALAKEIGISKIGFTTADNFDYLEKSLRASVEEGRNSGFEHKVIEDRIYTERLLESAKTIISIGVAYPHKLPQQPQKTPYKRGKITPSSWGLDYHYVVGEKLDRLSKGIEELCRDFPLQQKAMVDTGALVDTAVAQRAGIGFIGKNGLVISKEYGSYMFLGELITNLEIEPDKPVDYDCGDCRRCLDACPTSCLIGDGSMNAKRCLSFQTQDKGMMDIEFRKKIKTVIYGCDICQICCPYNKGINNSPATEIDPELAQPELIPFLSLSNGKFKEKFGMIAGSWRGKNILQRNAIIALANAHDKTAVVKLIEIIDKNNNPIHTATAIWALGEIVKKPNDEILAFMSHLTLKDEDSRKELELIRHKWQF”, the “soluble on expression in E. coli” value was “not soluble”.
In the case of “MTVVDAHLHVWDPEQAAYEWLGPAMAPVDRAMRFHDALPALRTAGVGAAVLVQAADNDEDTDLMLATAARHPEVVGVVAWVPLDDPGRARARLAALRRDPHVVGVRTLLHERSDPDWVLGPDADAGLALLAEAGLPFDYSTTSPAALRHLAELSARHPALRLVVDHLGKPPVGGGREDRAEWHRLIAAAAKHPGVHAKLSGLYSASGALDAWTTDEVRPFVEDALELFGPERLMYGGDWPISLLAGGYARTWEAMCELLAPLAPDDRAAVLGGTATRFYRLDPALLNTAHHAAVLEHHHHHH”, the “soluble on expression in E. coli” value is reported as “not soluble”.
With “MAHHHHHHMLRGLVNADALTSEQEEHIDQLQHEIDEIWNRRGNYQVDPDAWETMPFFMENITEEDIDKNANCAALASIVYEEVPPDEIAENRKEHGNRALNMALNPNQERRENLARAACYSYTEALQAKGKNTKLSSTIYANRSLAQFIVGNYGHALADAQRSIILDPNYRKAYYRAAKCAFALKKYDMGLQMLEKGRRVVDPPMDAAAQAEFLEMETNCLQGKEQQASEEAKQRRAARSQAAKVSNVARAITSSGIKISSRAEVTSEQMGVYGNPKPYFDTDGMLHVPLLFMYDEYQQTDIMHDVACDVCAAELLDELMPFPWDDRGRYQRLADIVVFFKIDDGANDVQYYEVDQSWPLLEVFREETYEMPQLMPVLHVVCKTSELVDRLEIHRVA” the “soluble on expression in E. coli” value was “soluble”.
For “MAHHHHHHMDKAKTLEVLRGMKFMQRKEEAKRRAAFEVAQRDEIERQLLHPGTGSSGASGGVSDGGSSALRDRGGGGPVRATVLYDDSFPTHAYSLSRRSFTETLGGGGAIPVAAGLGDTDAHLEGSAVESRVSLKDVGEAQASADAALDDSDVASDEEVADLWGGEDAEGELNDPTAASDRRNQGVKRTRDRRGDRNQHACSDGRFIVKPSLRAPKLPRRLQETVAEQKRQRAEEEGDMNM”, the “soluble on expression in E. coli” value was “soluble”.
In the case of “LAQRAGILCREFAIGFGPKIFSFKKNETVYTIRLLPVGGFVRMAGEDPEMIEVKPGYTVGLLFNKEDQVEKVIINQKEKYPDALVIEVETADLEHDMKITGYEQGKEDELSSFTVSETSFFIVDGEEVQIAPYNRQFGSKPVWQRIKA”, the “soluble on expression in E. coli” value is reported as “not soluble”.
